The values below come from the supplement of paper PMC10567573.

A short description of this series: protein stability index of a GFP-peptide fusion (GPS, HEK-293T) (PSI 1-6); higher = more stable.
Where [1] appears, read: treatment: DMSO, c terminus: a fixed tail appended.
[2] abbreviates: treatment: MLN4924 1 uM, 8 h, c terminus: a fixed tail appended.
Where [3] appears, read: treatment: DMSO, c terminus: native.
[4] abbreviates: treatment: MLN4924 1 uM, 8 h, c terminus: native.

± gives the standard deviation.
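Further: 24-mer peptide tiles fused after GFP, lentivirally expressed, FACS-sorted into six equal bins by GFP/DsRed ratio, decoded by Illumina sequencing, PSI is the read-weighted mean bin number.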

On to RALHWAAYMGHLDVVALLINHGAE [ANKRD44], for which the protein stability index runs as follows: under setting [1], 2.56 ± 0.43; under setting [2], 3.12 ± 0.66.

RAPQLHLEYRFYEQLGSGDGIPQV [CSNK1G3]: the protein stability index runs as follows: under setting [1], 3.36 ± 0.21; under setting [2], 3.34 ± 0.1.

With RARIAKGLRLCRPKAKAKAKAKAK [RPL29], the protein stability index by setting is: under setting [1], 4.16 ± 0.48; under setting [2], 4 ± 0.38.

Sequence RASALLASCSKNCTNSPAIVRFSG [FBXO34] displayed a protein stability index under setting [1] of 2.24 ± 0.24 and a protein stability index under setting [2] of 2.59 ± 0.19.

Turning to RCEELEDARYKLHHHLHKTLREIT [TEKT4], the protein stability index worked out at 2.81 ± 0.29 under setting [1] and 2.8 ± 0.25 under setting [2].

Consider RDAGATPSAAGAPASAPGEPRQRR [ANKRD9], for which the protein stability index by setting is: under setting [1], 5.57 ± 0.27; under setting [2], 5.59 ± 0.19.

Take RDFRPTDQEEIKTLERYMCSRFFI [TENT5C]: the protein stability index under setting [1] worked out at 2.63 ± 0.39 and the protein stability index under setting [2] is 2.71 ± 0.17.

In the case of RDSAYQSITHYRPVSASRSSLDLS [EMD], the protein stability index is, setting by setting: under setting [1], 3.41 ± 0.18; under setting [2], 3.58 ± 0.22.

In the case of REAQQYSEALASTRILKHSPESSR [GLIPR2], the protein stability index is, setting by setting: under setting [1], 4.92 ± 0.27; under setting [2], 4.92 ± 0.3.

As to REFDVRQTPQVNINPFTPDSLLLH [WEE1], the protein stability index under setting [1] came out at 3.41 ± 0.47 and the protein stability index under setting [2] is 3.52 ± 0.15.

As for REHRVRRIHVRRHITHDERPHGQQ [KCTD13], the protein stability index under setting [1] was found to be 4.36 ± 0.21 and the protein stability index under setting [2] turned out to be 4.45 ± 0.29.

As to REQSRLTSCLKKREEMKLKECVSI [TNFSF13B], the protein stability index worked out at 3.62 ± 0.11 under setting [1] and 3.81 ± 0.24 under setting [2].

As for RERKKLVLENLEDSCVLTGPDDSL [TRIB3], the protein stability index runs as follows: under setting [1], 4.91 ± 0.26; under setting [2], 4.95 ± 0.36.

Regarding RFCLVPSMEGVRWAFSCGTWLPSR [AASDHPPT], the protein stability index is 2.48 ± 0.79 under setting [1] and 2.32 ± 0.056 under setting [2].

Turning to RFGDRMFYKDWWNSTSYSNYYRTW [SOAT1], the protein stability index under setting [1] is 1.92 ± 0.23 and the protein stability index under setting [2] was found to be 2.04 ± 0.34.

Regarding RFLRMLLRLADEFGVAVVITNQVV [RAD51], the protein stability index by setting is: under setting [1], 2.46 ± 0.45; under setting [2], 2.45 ± 0.84.

On to RGQARRLAPNFRWAIPNRQINDGM [BEX3], for which the protein stability index is, setting by setting: under setting [1], 3.1 ± 0.24; under setting [2], 3.03 ± 0.47.

As for RHMEAVKAQLLEQAQGQLRELLDR [SOAT2], the protein stability index was determined as 3.07 ± 0.37 under setting [1] and 3.08 ± 0.086 under setting [2].

Take RIHVRRHITHDERPHGQQIVFKD [KCTD13]: the protein stability index was 4.31 ± 0.24 under setting [3] and 4.33 ± 0.32 under setting [4].

As to RILVGNRLHLAFKRQVPTEQARAY [RAB40C], the protein stability index is 2.29 ± 0.26 under setting [1] and 2.56 ± 0.27 under setting [2].

The sequence RKDHLKNHLQTHDPNKMAFGCEEC [PLAGL1] gave a protein stability index under setting [1] of 4.77 ± 0.16 and a protein stability index under setting [2] of 4.93 ± 0.54.

In the case of RKNPYPTKGEKIMLAIITKMTLTQ [IRX6], the protein stability index is 2.61 ± 1 under setting [1] and 2.74 ± 0.62 under setting [2].

RKRMKMDKTCSKTKNKSKHALRKK [FAM9B]: the protein stability index turned out to be 4.23 ± 0.45 under setting [1] and 4.66 ± 0.3 under setting [2].

As for RLIRKMFSFKVSRWMGLACFRSLA [CCDC70], the protein stability index is, setting by setting: under setting [1], 2.35 ± 0.46; under setting [2], 2.29 ± 0.45.

For RLREAAALGDIREVQKLVESGVDV [ANKRD40], the protein stability index by setting is: under setting [1], 4.28 ± 0.23; under setting [2], 4.19 ± 0.077.

On to RMAIGYLHSHRHLYPEGIGARQQQ [POMT2], for which the protein stability index runs as follows: under setting [1], 2.9 ± 0.22; under setting [2], 3.08 ± 0.21.

In the case of RMLVAASWACAFTNALTHTVAMST [OR3A1], the protein stability index by setting is: under setting [1], 3.07 ± 0.24; under setting [2], 3.18 ± 0.5.

In the case of RNPVSLVVTRLVILGSGEEGPQVG [ADAMTS4], the protein stability index under setting [1] came out at 2.83 ± 0.2.

As to RNYLNYGEEGAPGKWQQQGDLQDT [CHGB], the protein stability index reads like this: under setting [1], 4.86 ± 0.14; under setting [2], 4.94 ± 0.39.

In the case of RPELGAALGIYGAPYAAAAAAQSY [IRX6], the protein stability index was determined as 2.73 ± 0.12 under setting [1] and 2.92 ± 0.46 under setting [2].

On to RPNRQLGSMVEIAKQLQAVKRKIR [TRIM39], for which the protein stability index by setting is: under setting [1], 2.85 ± 0.43; under setting [2], 3.03 ± 0.27.

Turning to RPRPQGRSVSEPRDQHPQPSLGDS [RTN2], the protein stability index by setting is: under setting [1], 5.04 ± 0.31; under setting [2], 5.296 ± 0.046.

As for RPTYTPPSIMPQKHWVYVKRGGNC [ZBTB22], the protein stability index by setting is: under setting [1], 2.78 ± 0.25; under setting [2], 3.06 ± 0.32.

Turning to RQFEFSVDSFQIILDSLLFFYDCS [TENT5C], the protein stability index is, setting by setting: under setting [1], 3.06 ± 0.57; under setting [2], 3.04 ± 0.61.

On to RRGRHEQSPTSRPRKVSSLPPRSC [C22orf15], for which the protein stability index under setting [1] was 4.35 ± 0.066 and the protein stability index under setting [2] was 4.61 ± 0.22.

As to RRVKLQLWDTSGQGRFCTIFRSYS [RAB40B], the protein stability index came to 2.21 ± 0.57 under setting [1] and 2.08 ± 0.32 under setting [2].

Take RSKSGSEEVLCDSCIGNKQKAVKS [TRIM29]: the protein stability index runs as follows: under setting [1], 4.96 ± 0.31; under setting [2], 5.19 ± 0.11.

RSLENYHFVDEHGKDQGINIRQKV [CLINT1] returned a protein stability index under setting [1] of 3.77 ± 0.23 and a protein stability index under setting [2] of 3.75 ± 0.4.

Regarding RSVSLSMRKSGAMKKGGIFSAEFL [BNIP3L], the protein stability index reads like this: under setting [1], 2.8 ± 0.3; under setting [2], 2.95 ± 0.34.

For the sequence RTPEPLEEFPKREDQEGSPPETSL [MYBL2], the protein stability index is, setting by setting: under setting [1], 5.4 ± 0.36; under setting [2], 5.56 ± 0.23.

In the case of RTTPSRREITGVQAQPGEATSGPP [PALM], the protein stability index is, setting by setting: under setting [1], 5.25 ± 0.35; under setting [2], 5.2 ± 0.093.

Regarding RVKFRRQEANARERNRMHGLNDAL [NEUROD6], the protein stability index under setting [1] came out at 3.37 ± 0.18 and the protein stability index under setting [2] came out at 3.43 ± 0.34.

In the case of RVTNVGSLLLTPQENESLFTFLGK [WASL], the protein stability index by setting is: under setting [1], 2.84 ± 0.27; under setting [2], 3.19 ± 0.27.

For the sequence RWTFEKACHPFLLGPPLVRKRIHD [TOR1AIP2], the protein stability index under setting [1] was found to be 2.64 ± 0.18 and the protein stability index under setting [2] came out at 2.76 ± 0.33.

With RYEPLPPSLPAAGEQDCCGERVVI [KCNA3], the protein stability index runs as follows: under setting [1], 4.04 ± 0.16; under setting [2], 4.08 ± 0.34.

Turning to SAAGPPLSEDDKLQGAASHVPEGF [EHMT1], the protein stability index under setting [1] stood at 5.31 ± 0.3 and the protein stability index under setting [2] is 5.21 ± 0.11.

As to SAHPVEVFSFDLHEPLSKERVEAF [TMEM175], the protein stability index is 3.82 ± 0.19 under setting [1] and 3.82 ± 0.3 under setting [2].

Regarding SALGPPPAASNSSDLFDLMGSSQA [CLINT1], the protein stability index stood at 4.7 ± 0.22 under setting [1] and 4.49 ± 0.2 under setting [2].

Take SALSDTEIQREIGISNALHRLKLR [PPFIA4]: the protein stability index is, setting by setting: under setting [1], 4.2 ± 0.27; under setting [2], 4.17 ± 0.25.

SDAANRNHEALRQAKQEMNESRRQ [PRPH]: the protein stability index is, setting by setting: under setting [1], 5.2 ± 0.26; under setting [2], 4.96 ± 0.34.

With SDFLTLHSIIISLVEAGAHTDMTN [FEM1B], the protein stability index amounted to 2.87 ± 0.43 under setting [1] and 2.93 ± 0.54 under setting [2].

Take SDLFDLMGSSQATMTSSQSMNFSM [CLINT1]: the protein stability index is, setting by setting: under setting [1], 2.42 ± 0.22; under setting [2], 2.66 ± 0.24.

As for SDSPDAADSTSFDVQLGDIILTAT [PPTC7], the protein stability index reads like this: under setting [1], 3.98 ± 0.27; under setting [2], 4.01 ± 0.18.

As to SEAPNEKLFFVDTGSKEKGLTKKR [NOP53], the protein stability index reads like this: under setting [1], 4.98 ± 0.44; under setting [2], 5.37 ± 0.15.

In the case of SEFLKRFVEATRKWKVGIPSDPLV [ALDH8A1], the protein stability index runs as follows: under setting [1], 2.53 ± 0.85; under setting [2], 2.05 ± 0.2.

Take SEGELGGPSEPGGTHPEDHQGHSD [RHOBTB2]: the protein stability index is 5.54 ± 0.32 under setting [1] and 5.49 ± 0.29 under setting [2].

Turning to SELPPPMERTGGIGDSRPPSFHPH [DVL3], the protein stability index reads like this: under setting [1], 4.55 ± 0.25; under setting [2], 4.61 ± 0.09.

For the sequence SESMENINSGYETRRKKGKKDKDI [KMT2E], the protein stability index is, setting by setting: under setting [1], 5.01 ± 0.33; under setting [2], 5.39 ± 0.42.

In turn, SEVTELRRVLQGLEIELQSQLSMK [KRT16] displayed a protein stability index under setting [1] of 2.33 ± 0.2 and a protein stability index under setting [2] of 2.33 ± 0.31.

On to SFAELFSFMLQDRAKGLLGTTVTF [FEM1C], for which the protein stability index is, setting by setting: under setting [1], 2.79 ± 0.56; under setting [2], 3.21 ± 0.84.

On to SFGLRFGKREAAPGNHGRSAGRG [KISS1], for which the protein stability index by setting is: under setting [3], 3.23 ± 0.21; under setting [4], 2.64 ± 0.45.

On to SGESGLRRRGSDPASGEVEASQLR [TMEM40], for which the protein stability index reads like this: under setting [1], 5.56 ± 0.11; under setting [2], 5.51 ± 0.22.

SGPEEPLLEEEEKQWGPLEREPVR [RTN2]: the protein stability index is, setting by setting: under setting [1], 5.51 ± 0.21; under setting [2], 5.47 ± 0.34.

As to SGSRHPPWARGCGMFTFLSSVTAA [SLC2A12], the protein stability index by setting is: under setting [1], 2.48 ± 0.43; under setting [2], 2.38 ± 0.62.

SHQELHRELLMNHRRGLGVDSKPE [FAM107A]: the protein stability index is, setting by setting: under setting [1], 4.61 ± 0.22; under setting [2], 4.57 ± 0.2.

Turning to SIARLEMGPDEYEEMEEEEEEEEE [FBXO3], the protein stability index is, setting by setting: under setting [1], 5.41 ± 0.26; under setting [2], 5.62 ± 0.28.

For the sequence SIFGICMVFSGLCPLLLGSVMAIE [PTGFR], the protein stability index is, setting by setting: under setting [1], 3.36 ± 0.43; under setting [2], 3.09 ± 0.84.

As for SISASSARFVSSGSGGGYGGGMRV [KRT15], the protein stability index came to 3.02 ± 0.22 under setting [1] and 3.55 ± 0.23 under setting [2].

For the sequence SISELKHALSGHAKVKPFDPKITC [TPH1], the protein stability index is, setting by setting: under setting [1], 2.77 ± 0.45; under setting [2], 2.93 ± 0.37.

Regarding SIWAQNQVENWSAFAPDFKELDEN [RBBP5], the protein stability index stood at 4.26 ± 0.26 under setting [1] and 4.23 ± 0.23 under setting [2].

For the sequence SKFKKLMKQGGAALEGSALANGRA [DLX1], the protein stability index was found to be 3.78 ± 0.34 under setting [1] and 4 ± 0.26 under setting [2].

Regarding SKLVESGIQFMDEPEMAVFLQNAK [TRIM55], the protein stability index reads like this: under setting [1], 3.71 ± 0.34; under setting [2], 4.01 ± 0.21.
